Experimental data published in publication PMC9520026, “Densely methylated DNA traps Methyl-CpG–binding domain protein 2 but permits free diffusion by Methyl-CpG–binding domain protein 3”.

Assays:
[1] = molecular target: T1, MBD3sc (human, UniProt O95983 1-249+Q86YP4:137-178, internal_change); assay: SPR; FA: 50 mM Hepes pH 7.5, 100 mM NaCl, 1 mM MgCl2, 10 nM DNA, temperature not stated; SPR: 50 mM Hepes pH 7.5, 150 mM NaCl, 1 mM MgCl2, 1 mM TCEP, 0.05% Tween-20; NMR: 10 mM NaPO4 pH 6.5, 150 mM NaCl, 1 mM DTT, 10% 2H2O, 25 C; conditions: protein: recombinant; tags: N-terminal thioredoxin-His6-TEV site (removal stated only for NMR); blunt
[2] = molecular target: T2, MBD2sc (human, UniProt Q9UBB5 150-393+Q86YP4:137-178, internal_change); assay: as above; conditions: protein: recombinant; tags: N-terminal thioredoxin-His6-TEV site (removal stated only for NMR); blunt
[3] = molecular target: T1, MBD3sc; assay: fluorescence anisotropy; FA: 50 mM Hepes pH 7.5, 100 mM NaCl, 1 mM MgCl2, 10 nM DNA, temperature not stated; SPR: 50 mM Hepes pH 7.5, 150 mM NaCl, 1 mM MgCl2, 1 mM TCEP, 0.05% Tween-20; NMR: 10 mM NaPO4 pH 6.5, 150 mM NaCl, 1 mM DTT, 10% 2H2O, 25 C; conditions: protein: recombinant; tags: N-terminal thioredoxin-His6-TEV site (removal stated only for NMR); label: 5' 6-FAM on strand 1; blunt
[4] = molecular target: T2, MBD2sc; assay: as above; conditions: protein: recombinant; tags: N-terminal thioredoxin-His6-TEV site (removal stated only for NMR); label: 5' 6-FAM on strand 1; blunt
[5] = molecular target: T3, MBD2sc (2H,15N, tag cleaved) (human, UniProt Q9UBB5 150-393+Q86YP4:137-178, internal_change); assay: NMR; FA: 50 mM Hepes pH 7.5, 100 mM NaCl, 1 mM MgCl2, 10 nM DNA, temperature not stated; SPR: 50 mM Hepes pH 7.5, 150 mM NaCl, 1 mM MgCl2, 1 mM TCEP, 0.05% Tween-20; NMR: 10 mM NaPO4 pH 6.5, 150 mM NaCl, 1 mM DTT, 10% 2H2O, 25 C; conditions: protein: recombinant; tags: none (thioredoxin-His6 removed by TEV); blunt
[6] = molecular target: T3, MBD2sc (2H,15N, tag cleaved); assay: NMR; fast exchange between both sites; FA: 50 mM Hepes pH 7.5, 100 mM NaCl, 1 mM MgCl2, 10 nM DNA, temperature not stated; SPR: 50 mM Hepes pH 7.5, 150 mM NaCl, 1 mM MgCl2, 1 mM TCEP, 0.05% Tween-20; NMR: 10 mM NaPO4 pH 6.5, 150 mM NaCl, 1 mM DTT, 10% 2H2O, 25 C; conditions: protein: recombinant; tags: none (thioredoxin-His6 removed by TEV); blunt

T2 sequence (Q9UBB5 other isoform, or with tags, fused parts or gaps): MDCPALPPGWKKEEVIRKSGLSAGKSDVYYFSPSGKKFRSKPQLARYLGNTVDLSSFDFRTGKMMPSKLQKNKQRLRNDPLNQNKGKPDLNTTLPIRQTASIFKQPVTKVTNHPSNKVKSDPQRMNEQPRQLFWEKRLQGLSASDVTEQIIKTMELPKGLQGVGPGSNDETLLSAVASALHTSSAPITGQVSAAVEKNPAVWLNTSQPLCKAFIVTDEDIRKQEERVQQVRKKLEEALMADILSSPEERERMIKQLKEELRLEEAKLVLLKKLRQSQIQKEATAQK
T3 sequence (Q9UBB5 other isoform, or with tags, fused parts or gaps): as above
T1 sequence (O95983 other isoform, or with tags, fused parts or gaps): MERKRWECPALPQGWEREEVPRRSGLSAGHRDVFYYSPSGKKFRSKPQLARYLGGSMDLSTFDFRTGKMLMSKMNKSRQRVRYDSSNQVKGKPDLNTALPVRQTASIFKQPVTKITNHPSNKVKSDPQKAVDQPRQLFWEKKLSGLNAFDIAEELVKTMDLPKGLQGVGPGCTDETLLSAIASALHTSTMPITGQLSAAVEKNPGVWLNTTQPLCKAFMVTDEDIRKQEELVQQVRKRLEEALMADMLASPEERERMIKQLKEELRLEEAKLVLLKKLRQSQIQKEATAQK

B1: 17 bp mCpG biotin (SPR) (dsDNA)
DNA 1: CTGCCGCCGAGCGCCTC
DNA 2: GAGGCGCTCGGCGGCAG
modifications: 5-methylcytosine at C8 of strand 1 and C9 of strand 2
- Kd [1]: 1200 ± 200 nM
- Kd [2]: 11 ± 1 nM

B2: 17 bp CpG FAM (unmethylated) (dsDNA)
DNA 1: CTGCCGCCGAGCGCCTC
DNA 2: GAGGCGCTCGGCGGCAG
- Kd [3]: 8100 ± 400 nM
- Kd [4]: 2800 ± 100 nM

B3: 17 bp CpG-free FAM (dsDNA)
DNA 1: CTGGCCCCAGGGCCCTC
DNA 2: GAGGGCCCTGGGGCCAG
- Kd [3]: 14200 ± 300 nM
- Kd [4]: 9100 ± 400 nM

B4: 38 bp, first CpG methylated (dsDNA)
DNA 1: GGAGGCGCTCGGCGGCAGCCTGGAACGGAATTCTTCTA
DNA 2: TAGAAGAATTCCGTTCCAGGCTGCCGCCGAGCGCCTCC
modifications: 5-methylcytosine at C10 of strand 1 and C28 of strand 2
- binding result [5]: binds

B5: 38 bp, second CpG methylated (dsDNA)
DNA 1: GGAGGCGCTCGGCGGCAGCCTGGAACGGAATTCTTCTA
DNA 2: TAGAAGAATTCCGTTCCAGGCTGCCGCCGAGCGCCTCC
modifications: 5-methylcytosine at C26 of strand 1 and C12 of strand 2
- binding result [5]: binds

B6: 38 bp, both CpG methylated (dsDNA)
DNA 1: GGAGGCGCTCGGCGGCAGCCTGGAACGGAATTCTTCTA
DNA 2: TAGAAGAATTCCGTTCCAGGCTGCCGCCGAGCGCCTCC
modifications: 5-methylcytosine at C10, C26 of strand 1 and C12, C28 of strand 2
- binding result [6]: binds

B7: 17 bp mCpG FAM (dsDNA)
DNA 1: CTGCCGCCGAGCGCCTC
DNA 2: GAGGCGCTCGGCGGCAG
modifications: 5-methylcytosine at C8 of strand 1 and C9 of strand 2 (symmetric)
- Kd [3]: 5900 ± 400 nM
- Kd [4]: 7 ± 2 nM

B8: 17 bp CpG biotin (SPR) (dsDNA)
DNA 1: CTGCCGCCGAGCGCCTC
DNA 2: GAGGCGCTCGGCGGCAG
- Kd [1]: 1020 ± 10 nM
- Kd [2]: 1240 ± 80 nM
